According to patent US20240109963A1 (AB THERAPEUTICS, published 2024):

T1: full-length human Claudin 18.2 on MIA PaCa-2 cells (MIA PaCa-2+ Claudin 18.2) (human, UniProt P56856-2 1-261)
T1 sequence (looked up): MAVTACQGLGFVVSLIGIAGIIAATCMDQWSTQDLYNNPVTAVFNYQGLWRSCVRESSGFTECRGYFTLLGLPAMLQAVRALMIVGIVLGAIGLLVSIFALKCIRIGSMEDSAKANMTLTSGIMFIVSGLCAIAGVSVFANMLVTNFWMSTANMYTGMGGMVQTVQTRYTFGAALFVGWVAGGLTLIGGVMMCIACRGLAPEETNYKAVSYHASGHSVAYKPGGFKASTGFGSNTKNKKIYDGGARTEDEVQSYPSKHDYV

T2: Claudin 18.2 on CHO cells (CHO+ Claudin 18.2) (UniProt P56856-2 1-261)
T2 construct: whole, on cells; also called CHO_18.2
T2 sequence (looked up): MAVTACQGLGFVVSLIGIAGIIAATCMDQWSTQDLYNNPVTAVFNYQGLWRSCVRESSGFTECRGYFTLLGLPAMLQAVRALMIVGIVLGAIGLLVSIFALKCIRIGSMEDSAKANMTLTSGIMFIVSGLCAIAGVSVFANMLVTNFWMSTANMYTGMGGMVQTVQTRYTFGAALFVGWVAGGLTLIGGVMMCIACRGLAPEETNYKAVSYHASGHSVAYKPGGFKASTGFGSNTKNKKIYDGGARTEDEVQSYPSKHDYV


Assays:
[1] = target: T1, full-length human Claudin 18.2 on MIA …; test: cell-based or functional assay
CD3 on Jurkat cells = target: T3, CD3 on Jurkat cells; test: flow cytometry on Jurkat cells, CD3 binding (T cell) (summary table)
T3 construct: whole, on cells; also called CD3+ Jurkat cells

[2] = target: T2, Claudin 18.2 on CHO cells (CHO+ Claudin …); test: flow cytometry, unpurified supernatant on CHO+ Claudin 18.2 cells, FITC-positive cells
Method: To compare the half maximal effective concentration (EC50) of the lead BsAbs, 8.5×10⁴ cells/well of CHO+ Claudin 18.2 cells in 100 μl FACS buffer were seeded in a V-bottom 96-well plate. […] The final concentrations of the BsAbs were 10 μg/ml, 1 μg/ml, 100 ng/ml, 10 ng/ml, 1 ng/ml, 100 pg/ml, 10 pg/ml, and 1 pg/ml. After incubating the plate at RT for 45 minutes, the cells were washed twice with the FACS buffer and cell pellets were resuspended in 100 μl FACS buffer containing goat anti-human-FITC (1:200) for 30 minutes at RT in dark. Afterwards, the cells were washed twice with FACS buffer, and cell pellets were resuspended in 120 μl FACS buffer. The percentage of FITC-positive cells were analyzed by flow cytometry.

T3 sequence (P07766 23-207, chain 1 of 3): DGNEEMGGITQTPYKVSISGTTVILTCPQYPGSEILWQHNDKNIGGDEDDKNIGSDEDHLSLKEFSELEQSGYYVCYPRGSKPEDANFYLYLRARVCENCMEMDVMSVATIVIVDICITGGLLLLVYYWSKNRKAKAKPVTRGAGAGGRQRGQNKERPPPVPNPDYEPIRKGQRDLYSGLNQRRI
T3 sequence (P09693 23-182, chain 2 of 3, further chain): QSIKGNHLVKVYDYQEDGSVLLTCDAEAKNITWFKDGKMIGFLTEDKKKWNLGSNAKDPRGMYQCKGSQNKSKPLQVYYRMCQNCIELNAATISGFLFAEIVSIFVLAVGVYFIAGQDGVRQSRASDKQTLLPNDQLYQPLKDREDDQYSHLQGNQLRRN
T3 sequence (P04234 22-171, chain 3 of 3, further chain): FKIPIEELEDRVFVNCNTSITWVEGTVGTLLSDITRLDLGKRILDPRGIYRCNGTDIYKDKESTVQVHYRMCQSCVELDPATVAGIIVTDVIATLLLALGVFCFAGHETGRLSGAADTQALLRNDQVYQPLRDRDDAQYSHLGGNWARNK

Row | T cell activation EC50 (CD69-positive cells) [1] | EC50 (CD3 on Jurkat cells) | EC50 [2] | Binder
1 | 0.056 µg/mL | 58.9 µg/mL |  | Claudin 18.2-1B2/CD3 BsAb (BiSpecific-V1 structure) (bispecific antibody) VHH-Fc: not shown heavy: not shown light: QIVLSQSPAILSASPGEKVTMTCRASSSVSYIHWFQQKPGSSPKPWIYATSNLASGVPVRFSGSGSGTSYSLTISRVEAEDAATYYCQQWTSNPPTFGGGTKLEIKRTVAAPSVFIFPPSDEQLKSGTASVVCLLNNFYPREAKVQWKVDNALQSGNSQESVTEQDSKDSTYSLSSTLTLSKADYEKHKVYACEVTHQGLSSPVTKSFNRGEC
2 |  |  | ~0.006 µg/mL | Claudin 18.2-4G1/CD3 BsAb (BiSpecific-V1 structure) (bispecific antibody, tested as unpurified culture supernatant) VHH-Fc: not shown heavy: not shown light: QIVLSQSPAILSASPGEKVTMTCRASSSVSYIHWFQQKPGSSPKPWIYATSNLASGVPVRFSGSGSGTSYSLTISRVEAEDAATYYCQQWTSNPPTFGGGTKLEIKRTVAAPSVFIFPPSDEQLKSGTASVVCLLNNFYPREAKVQWKVDNALQSGNSQESVTEQDSKDSTYSLSSTLTLSKADYEKHKVYACEVTHQGLSSPVTKSFNRGEC
3 |  |  | ~0.013 µg/mL | Claudin 18.2-3C2/CD3 BsAb (BiSpecific-V1 structure) (bispecific antibody, tested as unpurified culture supernatant) VHH-Fc: not shown heavy: not shown light: QIVLSQSPAILSASPGEKVTMTCRASSSVSYIHWFQQKPGSSPKPWIYATSNLASGVPVRFSGSGSGTSYSLTISRVEAEDAATYYCQQWTSNPPTFGGGTKLEIKRTVAAPSVFIFPPSDEQLKSGTASVVCLLNNFYPREAKVQWKVDNALQSGNSQESVTEQDSKDSTYSLSSTLTLSKADYEKHKVYACEVTHQGLSSPVTKSFNRGEC
